Source: article PMC3040777, “Purification and Characterization of the RecA Protein from Neisseria gonorrhoeae”

What was measured:
[1] = molecular target: T1, SSBNg (Neisseria gonorrhoeae, UniProt Q5F7Y0 1-174); experiment: EMSA; 50 uM nucleotides ssDNA; SSB 10 nM-10 uM; fully bound at 1/10 SSB; affinity similar to SSBEc; EMSA: 20 mM Tris-Cl 39% cation (pH 8.3), 0.5 M NaCl, 1 mM EDTA, 50% glycerol, 10 min at 37 C; 4% native PAGE at 4 C; settings: protein: recombinant; tags: none stated (pET21a, native purification); chain copies: 4; label: 5'-6FAM; single strand
T1 sequence: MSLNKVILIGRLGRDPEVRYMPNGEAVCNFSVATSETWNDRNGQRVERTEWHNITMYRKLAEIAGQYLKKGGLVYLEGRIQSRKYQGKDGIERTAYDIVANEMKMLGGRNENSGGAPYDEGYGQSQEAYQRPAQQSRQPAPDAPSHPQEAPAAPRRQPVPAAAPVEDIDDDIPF

[2] = molecular target: SSBEc (Escherichia coli, UniProt P0AGE0 1-178); experiment: EMSA; 50 uM nucleotides ssDNA; SSB 10 nM-10 uM; fully bound at 1/10 SSB; affinity similar to SSBNg; EMSA: 20 mM Tris-Cl 39% cation (pH 8.3), 0.5 M NaCl, 1 mM EDTA, 50% glycerol, 10 min at 37 C; 4% native PAGE at 4 C; settings: protein: recombinant; chain copies: 4; label: 5'-6FAM; single strand
Sequence of SSBEc (P0AGE0 whole entry): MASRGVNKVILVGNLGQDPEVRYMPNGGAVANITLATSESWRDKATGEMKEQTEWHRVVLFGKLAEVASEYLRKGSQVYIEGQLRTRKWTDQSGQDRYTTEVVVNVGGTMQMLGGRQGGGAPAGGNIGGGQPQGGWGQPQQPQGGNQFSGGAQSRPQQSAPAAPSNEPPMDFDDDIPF

B1: OCN324 50-mer (ssDNA)
DNA: TGCCTCGCGGTAGCTCTTCTCGGAGCGCACGATTCGCACTGCTGATGTTC
binding result [1]: binds | binding result [2]: binds
